Assay results taken from patent US20260258124A1 (CIMEIO THERAPEUTICS, published 2026).
Where a chain is given by its changes, count along the chain named.

B1: FSI-174 (antibody, human IgG1, V domains shown)
VH: QVQLVQSGAEVKKPGASVKVSCKASGYTFTSYNMHWVRQAPGQGLEWMGVIYSGNGDTSYAQKFQGRVTITADKSTSTAYMELSSLRSEDTAVYYCARERDTRFGNWGQGTLVTVSS
VL: DIVMTQSPLSLPVTPGEPASISCRASESVDIYGQSFMHWYLQKPGQSPQLLIYLASNLESGVPDRFSGSGSGTDFTLKISRVEAEDVGVYYCQQNNEDPYTFGGGTKVEIK
B2: AMG191 (antibody, human IgG1, V domains shown)
VH: B1 VH with A61N, Q65K
VL: DIVMTQSPDSLAVSLGERATINCRASESVDIYGNSFMHWYQQKPGQPPKLLIYLASNLESGVPDRFSGSGSGTDFTLTISSLQAEDVAVYYCQQNNEDPYTFGGGTKVEIKR
B3: Piz Zupo (antibody, V domains shown)
VH: B1 VH with A61N, Q65K, I70M, A72T, K74T, S84R, R87T, E89D, S117A
VL: EIVLTQSPSSLSASVGDRVTITCRASESVDIYGQSFMHWYQQKPGKAPKLLIYLASNLESGVPSRFSGSGSGTDFTLTISSLQPEDFATYYCQQNKEEPYTFGQGTKLEIKR
notes: IgG; also called VH1/VL1.25
B4: Bellavista (antibody, V domains shown)
VH: B1 VH with N55Q, A61N, Q65K, I70M, A72T, K74T, S84R, R87T, E89D, S117A
VL: B3 VL with Q34E, K96R
notes: IgG; also called VH1.4/VL1.29
B5: Matterhorn (antibody, V domains shown)
VH: B1 VH with A61N, Q65K, I70M, A72T, K74T, S84R, R87T, E89D, S117A
VL: B3 VL with Q34S, K96N, E98D
notes: IgG; also called VH1/VL1.4; VH1/LC1.4
B6: Weissmies (antibody, V domains shown)
VH: B1 VH with N55S, A61N, Q65K, I70M, A72T, K74T, S84R, R87T, E89D, S117A
VL: B3 VL with Q34Y, K96N
notes: IgG; also called VH1.2/VL1.16
B7: Zinalrithorn (antibody, V domains shown)
VH: B1 VH with A61N, Q65K, I70M, A72T, K74T, S84R, R87T, E89D, S117A
VL: B3 VL with Q34N, N95H, K96N, E98D
notes: IgG; also called VH1/VL1.12
B8: Weisshorn (antibody, V domains shown)
VH: B1 VH with A61N, Q65K, I70M, A72T, K74T, S84R, R87T, E89D, S117A
VL: B3 VL with K96N, E98D
notes: IgG; also called VH1/VL1.2; VH1/LC1.2

biological target: T1, CD117 on wild-type cells (TF-1 cells, HSPCs, HSCs) (human, UniProt P10721 26-976); assay: cell-based or functional assay
T1 sequence (P10721 26-976 limits assumed): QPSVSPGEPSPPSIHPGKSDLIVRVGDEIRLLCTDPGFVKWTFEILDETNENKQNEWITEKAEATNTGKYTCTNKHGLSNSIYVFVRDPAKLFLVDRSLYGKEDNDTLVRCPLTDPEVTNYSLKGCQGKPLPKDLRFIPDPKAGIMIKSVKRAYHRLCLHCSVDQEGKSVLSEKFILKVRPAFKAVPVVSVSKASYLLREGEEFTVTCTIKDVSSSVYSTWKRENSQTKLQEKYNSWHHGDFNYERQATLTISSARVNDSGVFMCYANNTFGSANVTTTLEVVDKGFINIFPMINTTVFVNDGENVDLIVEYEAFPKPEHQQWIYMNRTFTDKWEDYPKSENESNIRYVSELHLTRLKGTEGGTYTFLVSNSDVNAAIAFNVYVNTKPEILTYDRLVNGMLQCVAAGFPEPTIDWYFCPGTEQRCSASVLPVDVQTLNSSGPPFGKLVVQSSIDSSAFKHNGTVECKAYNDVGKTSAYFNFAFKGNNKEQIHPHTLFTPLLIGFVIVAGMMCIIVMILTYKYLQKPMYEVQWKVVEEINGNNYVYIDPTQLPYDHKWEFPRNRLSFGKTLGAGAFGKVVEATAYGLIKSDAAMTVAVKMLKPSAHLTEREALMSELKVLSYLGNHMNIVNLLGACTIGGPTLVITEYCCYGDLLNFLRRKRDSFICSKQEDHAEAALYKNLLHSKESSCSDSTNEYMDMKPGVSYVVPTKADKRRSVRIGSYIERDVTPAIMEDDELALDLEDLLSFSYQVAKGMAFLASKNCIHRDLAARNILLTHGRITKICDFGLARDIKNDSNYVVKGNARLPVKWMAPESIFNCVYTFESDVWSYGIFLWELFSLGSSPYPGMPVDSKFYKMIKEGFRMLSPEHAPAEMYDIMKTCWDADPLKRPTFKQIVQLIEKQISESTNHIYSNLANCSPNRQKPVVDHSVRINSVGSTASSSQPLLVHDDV

Row | Binder | IC50, inhibition of SCF-dependent proliferation of CD34-positive HSPCs (CellTiter-Glo)
1 | B1 | 0.0253 µg/mL
2 | B2 | 0.0954 µg/mL
3 | B3 | 0.114 µg/mL
4 | B4 | 0.096 µg/mL
5 | B5 | 0.0716 µg/mL

biological target: T1, CD117 on wild-type cells (TF-1 cells, …); assay: cell-based or functional assay; remark: another data set of the same source

Row | Binder | IC50, inhibition of SCF-dependent proliferation of TF-1 cells (CellTiter-Glo), Average | IC50, inhibition of SCF-dependent proliferation of TF-1 cells (CellTiter-Glo), Experiment #1 | IC50, inhibition of SCF-dependent proliferation of TF-1 cells (CellTiter-Glo), Experiment #2
6 | B1 | 0.0473 µg/mL | 0.0387 µg/mL | 0.056 µg/mL
7 | B2 | 0.208 µg/mL | 0.093 µg/mL | 0.323 µg/mL
8 | B3 | > 0.5 µg/mL | > 0.5 µg/mL | > 0.5 µg/mL
9 | B4 | 0.157 µg/mL | 0.103 µg/mL | 0.212 µg/mL
10 | B5 | 0.116 µg/mL | 0.0648 µg/mL | 0.168 µg/mL

biological target: T2, human recombinant CD117 (c-Kit) from Sino Biological (Catalog No. 11996-H08H) (human, UniProt P10721 26-524); assay: BLI Octet, set-up as in Example 2
T2 construct: also called soluble antigen
Description: In the main experiment kinetic assays were performed by first capturing IgG using anti-human Fc biosensors. The mAb capture biosensors were then submerged in wells containing different concentrations of antigen (association stage) followed by a dissociation step in running buffer. To allow for double reference correction, IgG-captured sensors were dipped into wells containing only buffer and blank sensors were also dipped into wells containing the antigen. This referencing provided a means of compensating for both the natural dissociation of the capture IgG and non-specific binding of the antigen to the sensor surface. Steps were performed at 25° C. at a constant shaking of 1000 rpm. New sensors were used for each sample. Dissociation rate constants (Kd) were calculated using the ForteBio Data Analysis software. All consumables used were those recommended by ForteBio.
All samples were diluted in freshly prepared running buffer. Antibody variants were immobilized onto the surface of a series of biosensors using the capture methods described. Antigen was passed over the surface to generate a binding response. Binding data for the IgG:antigen interactions were collected at 25° C. on the biosensors. A dilution series of the antigen was used in the association step, in order to fit results globally and get the best values for ka, kd, and KD. The response data for the binding of antigen to the surface immobilized IgG were fitted to a 1:1 binding model. HC0 LC0 refers to murine SR-1.

T2 sequence (P10721 26-524 limits assumed): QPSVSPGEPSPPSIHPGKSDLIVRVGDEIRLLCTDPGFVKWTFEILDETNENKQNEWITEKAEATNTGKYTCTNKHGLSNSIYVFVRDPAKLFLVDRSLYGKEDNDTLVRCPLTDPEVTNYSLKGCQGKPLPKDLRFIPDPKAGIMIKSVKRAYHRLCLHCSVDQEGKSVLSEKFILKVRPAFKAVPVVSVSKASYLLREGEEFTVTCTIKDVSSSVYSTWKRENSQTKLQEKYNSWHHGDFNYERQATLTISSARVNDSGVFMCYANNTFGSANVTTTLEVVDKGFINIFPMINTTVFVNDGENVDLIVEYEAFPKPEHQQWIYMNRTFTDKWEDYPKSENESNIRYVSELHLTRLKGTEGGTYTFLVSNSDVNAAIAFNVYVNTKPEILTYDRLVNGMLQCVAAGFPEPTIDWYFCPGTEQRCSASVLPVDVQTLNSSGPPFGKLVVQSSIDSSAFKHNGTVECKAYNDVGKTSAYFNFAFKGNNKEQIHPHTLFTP

Row | Binder | Kd
11 | B3 | 1.1 nM
12 | B6 | 0.37 nM
13 | B4 | 1.3 nM
14 | B7 | 1.3 nM
15 | B8 | 0.3 nM
16 | B5 | 0.5 nM
